In PMC4577447:

Molecular target: transcription elongation complex
Assay: single-molecule fluorescence co-localization

B1: GreB (natural protein)
chain: MKTPLVTREGYEKLKQELNYLWREERPEVTKKVTWAASLGDRSENADYQYNKKRLREIDRRVRYLTKCLENLKIVDYSPQQEGKVFFGAWVEIENDDGVTHRFRIVGYDEIFGRKDYISIDSPMARALLKKEVGDLAVVNTPAGEASWYVNAIEYVKP
modifications: fluorescent dye label: Cy3 (Figure 5) or Cy3B (Figure 6); position not stated
In the case of B1, the ka (apparent first-order association rate constant at 0.5 nM GreB) is reported as 0.0149 s⁻¹.
